# According to IntAct's records for PubMed 32493513:
# B1: Disrupted in schizophrenia 1 homolog (Mus musculus), Q811T9 (parent)
# chain: MQGGGPRGAPIHSPSHGADSGHGLPPAVAPQRRRLTRRPGYMRSTAGSGIGFLSPAVGMPHPSSAGLTGQQSQHSQSKAGQCGLDPGSHCQASLVGKPFLKSSLVPAVASEGHLHPAQRSMRKRPVHFAVHSKNDSRQSERLTGSFKPGDSGFWQELLSSDSFKSLAPSLDAPWNKGSRGLKTVKPLASPALNGPADIASLPGFQDTFTSSFSFIQLSLGAAGERGEAEGCLPSREAEPLHQRPQEMAAEASSSDRPHGDPRHLWTFSLHAAPGLADLAQVTRSSSRQSECGTVSSSSSDTGFSSQDASSAGGRGDQGGGWADAHGWHTLLREWEPMLQDYLLSNRRQLEVTSLILKLQKCQEKVVEDGDYDTAETLRQRLEELEQEKGRLSWALPSQQPALRSFLGYLAAQIQVALHGATQRAGSDDPEAPLEGQLRTTAQDSLPASITRRDWLIREKQRLQKEIEALQARMSALEAKEKRLSQELEEQEVLLRWPGCDLMALVAQMSPGQLQEVSKALGETLTSANQAPFQVEPPETLRSLRERTKSLNLAVRELTAQVCSGEKLCSSLRRRLSDLDTRLPALLEAKMLALSGSCFSTAKELTEEIWALSSEREGLEMFLGRLLALSSRNSRRLGIVKEDHLRCRQDLALQDAAHKTRMKANTVKCMEVLEGQLSSCRCPLLGRVWKADLETCQLLMQSLQLQEAGSSPHAEDEEQVHSTGEAAQTAALAVPRTPHPEEEKSPLQVLQEWDTHSALSPHCAAGPWKEDSHIVSAEVGEKCEAIGVKLLHLEDQLLGAMYSHDEALFQSLQGELQTVKETLQAMILQLQPTKEAGEASASYPTAGAQETEA
# B2: Disrupted in schizophrenia 1 protein (Homo sapiens), Q9NRI5 (parent)
# chain: MPGGGPQGAPAAAGGGGVSHRAGSRDCLPPAACFRRRRLARRPGYMRSSTGPGIGFLSPAVGTLFRFPGGVSGEESHHSESRARQCGLDSRGLLVRSPVSKSAAAPTVTSVRGTSAHFGIQLRGGTRLPDRLSWPCGPGSAGWQQEFAAMDSSETLDASWEAACSDGARRVRAAGSLPSAELSSNSCSPGCGPEVPPTPPGSHSAFTSSFSFIRLSLGSAGERGEAEGCPPSREAESHCQSPQEMGAKAASLDGPHEDPRCLSRPFSLLATRVSADLAQAARNSSRPERDMHSLPDMDPGSSSSLDPSLAGCGGDGSSGSGDAHSWDTLLRKWEPVLRDCLLRNRRQMEVISLRLKLQKLQEDAVENDDYDKAETLQQRLEDLEQEKISLHFQLPSRQPALSSFLGHLAAQVQAALRRGATQQASGDDTHTPLRMEPRLLEPTAQDSLHVSITRRDWLLQEKQQLQKEIEALQARMFVLEAKDQQLRREIEEQEQQLQWQGCDLTPLVGQLSLGQLQEVSKALQDTLASAGQIPFHAEPPETIRSLQERIKSLNLSLKEITTKVCMSEKFCSTLRKKVNDIETQLPALLEAKMHAISGNHFWTAKDLTEEIRSLTSEREGLEGLLSKLLVLSSRNVKKLGSVKEDYNRLRREVEHQETAYETSVKENTMKYMETLKNKLCSCKCPLLGKVWEADLEACRLLIQSLQLQEARGSLSVEDERQMDDLEGAAPPIPPRLHSEDKRKTPLKVLEEWKTHLIPSLHCAGGEQKEESYILSAELGEKCEDIGKKLLYLEDQLHTAIHSHDEDLIQSLRRELQMVKETLQAMILQLQPAKEAGEREAAASCMTAGVHEAQA
# Variants of: B1
# Details: with drd2_human DRD2, P14416
# drd2_human DRD2, P14416, sequence (P14416 whole entry): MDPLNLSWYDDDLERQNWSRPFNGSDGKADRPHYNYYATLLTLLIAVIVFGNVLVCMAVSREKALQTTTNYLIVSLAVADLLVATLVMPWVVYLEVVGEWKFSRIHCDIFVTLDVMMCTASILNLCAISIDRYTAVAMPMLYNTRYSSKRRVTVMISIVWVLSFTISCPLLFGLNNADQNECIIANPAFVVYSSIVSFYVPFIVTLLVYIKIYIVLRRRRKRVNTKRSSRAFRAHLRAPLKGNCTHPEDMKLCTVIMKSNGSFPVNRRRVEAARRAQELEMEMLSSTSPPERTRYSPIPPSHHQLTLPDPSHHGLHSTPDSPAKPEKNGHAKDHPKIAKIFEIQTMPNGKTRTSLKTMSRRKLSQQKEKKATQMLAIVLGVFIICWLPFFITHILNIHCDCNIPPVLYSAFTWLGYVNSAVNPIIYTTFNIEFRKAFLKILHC
row,effect of a mutation on the interaction,Variant
1,increasing interaction,L100P

# Variants of: B1
# Details: with drd2_mouse Drd2, P61168
# drd2_mouse Drd2, P61168, sequence (P61168 whole entry): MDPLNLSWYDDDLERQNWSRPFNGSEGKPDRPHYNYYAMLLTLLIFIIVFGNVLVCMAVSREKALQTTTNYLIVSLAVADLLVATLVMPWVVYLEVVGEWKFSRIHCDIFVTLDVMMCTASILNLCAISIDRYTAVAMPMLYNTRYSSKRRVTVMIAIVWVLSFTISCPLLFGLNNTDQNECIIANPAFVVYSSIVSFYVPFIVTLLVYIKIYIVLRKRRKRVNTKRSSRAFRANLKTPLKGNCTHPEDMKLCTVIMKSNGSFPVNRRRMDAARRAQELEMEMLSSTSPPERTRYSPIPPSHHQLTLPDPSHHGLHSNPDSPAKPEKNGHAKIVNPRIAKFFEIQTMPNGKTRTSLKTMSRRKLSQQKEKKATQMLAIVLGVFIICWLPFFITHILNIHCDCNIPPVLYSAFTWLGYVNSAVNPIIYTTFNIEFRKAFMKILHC
row,effect of a mutation on the interaction,Variant
1,increasing interaction,L100P

# Variants of: B2
# Details: with drd2_human DRD2, P14416
row,effect of a mutation on the interaction,Variant
1,decreasing interaction,A83V

# Variants of: B2
# Details: with drd2_human DRD2, P14416
# Remark: another data set of the same source
row,effect of a mutation on the interaction,Variant
1,increasing interaction,R264Q
